Laboratory results from patent US6858210B1, “Therapeutic and diagnostic domain 1 β2GPI polypeptides and methods of using same” (La Jolla Pharmaceutical Co., priority 1998, dated 2005).
Numbering of substitutions follows the chain as printed. Names may count otherwise.

B1: B11: phage clone, domain 1 mutant M42K (protein)
chain: GRTCPKPDDLPFSTVVPLKTFYEPGEEITYSCKPGYVSRGGKRKFICPLTGLWPINTLKCTPRV
B2: 2C3: phage clone, domain 1 mutant P54S (protein)
chain: B1 chain with K42M, P54S
B3: A10: phage clone, domain 1 mutant D8G (protein)
chain: B1 chain with D8G, K42M
B4: 2D12: phage clone, domain 1 mutant F45L (protein)
chain: B1 chain with K42M, F45L
B5: 2D4: phage clone, domain 1 mutant M42T (protein)
chain: B1 chain with K42T
B6: 2D9: phage clone displaying β2GPI domain 1 mutant T3P (protein)
chain: GRPCPKPDDLPFSTVVPLKTFYEPGEEITYSCKPGYVSRGGMRKFICPLTGLWPINTLKCTPRVAEPVESCLAKPHTENSFTNVWKDDKTLDRYANYEGCLWNATGVVVCTGDETQCYGTWVPIGLAIPENEGGGSEGGGSEGGGSEGGGTKPPEYGDTPIPGYTYINPLDGTYPPGTEQNPANPNPSLEESQPLNTFMFQNNRFRNRQGALTVYTGTVTQGTDPVKTYYQYTPVSSKAMYDAYWNGKFRDCAFHSGFNEDPFVCEYQGQSSDLPQPPVNAGGGSGGGSGGGSEGGGSEGGGSEGGGSEGGGSGGGSGSGDFDYEKMANANKGAMTENADENALQSDAKGKLDSVATDYGAAIDGFIGDVSGLANGNGATGDFAGSNSQMAQVGDGDNSPLMNNFRQYLPSLPQSVECRPYVFGAGKPYEFSIDCDKINLFRGVFAFLLYVATFMYVFSTFANILRNKES
B7: SH1: phage clone, domain 1 mutant K33E (protein)
chain: B1 chain with K33E, K42M
B8: SE3: phage clone, domain 1 mutant T20I (protein)
chain: B1 chain with T20I, K42M
B9: SC3: phage clone, domain 1 mutant F45S (protein)
chain: B1 chain with K42M, F45S
B10: 3F6: phage clone, domain 1 mutant K44E (protein)
chain: B1 chain with K42M, K44E
B11: 3B4: phage clone, domain 1 mutant S38T (protein)
chain: B1 chain with S38T, K42M
B12: 4B12: phage clone, domain 1 mutant T50P (protein)
chain: B1 chain with K42M, T50P
B13: 4G1: phage clone, domain 1 mutant S31P (protein)
chain: B1 chain with S31P, K42M

test system: rabbit anti-human β2GPI; assay: Micropanning of mutant domain 1 phage, rabbit antibody; type: binding; parameters: key: 0 (<10 colonies) to 4+ (confluent) semiquantitative colony score; details: Table 7A, first (or only) value
Protocol: Error prone PCR was carried out as follows. Domain 1 of human β2GPI was amplified by PCR under conditions that enhance the error rate of Taq polymerase. The primers were such that amino acids 1-64 were amplified. A Sfc 1 restriction site was incorporated as part of amino acid 1. At the 3′ end a Sal 1 restriction site was incorporated after amino acid 64. The PCR reaction was done as described by Leung et al. (1989) Technique 1:11, using 0.25 mM MnCl2. The PCR product was digested with Sfc 1 and Sal 1 and cloned into fd-tet-DOG2 that had been digested with Apal 1 and Sal 1. This positions domain 1 at the N-terminus of pill immediately after the pill signal sequence. The ligation reaction was electroporated in E. coli K91. Phage were harvested and titered by standard methods. Resulting phage clones were assayed using a micropanning technique.
Immulon type 2 plates were coated with protein G. Protein G was prepared at 5 μg/mL in 0.1 M NaHCO3 and 100 μL per well was added to the wells of microtitration plates and incubated overnight at 4° C. After discarding excess protein G solution from plates, each well was blocked with 200 μL 2YT for 1 hour at RT with agitation on an oscillating platform. Tris-buffered saline, pH 7.4/0.5% Tween 20 (TBS/Tween), was used with an automatic plate washer to wash the wells 4 times with 200 μL. One hundred μL human β2GPI-dependent antiphospholipid 6626, 6501, 6701, rabbit β2GPI-dependent antiphospholipid, or control normal IgG, diluted to 2.5 μg/mL with 2YT, was added to washed wells. The plate was incubated for 1 hour at room temperature on a rotating platform.
Phage to be tested by micropanning were obtained from the agar plates generated by biopanning. Each clone to be tested was transferred using sterile toothpicks to a separate well of a round-bottom 96-well microtitration plate (Corning, Corning, N.Y.) containing 200 μL 2YT/Tet per well and cultured overnight at 30° C. Following overnight incubation, phage cultures were centrifuged using a microtitration plate holder at 1300×g for 10 minutes at room temperature. Supernatants constituted the source of “neat” phage. The neat phage were diluted 1: 100-1:1000 and 100 μL was added to the plate containing protein G-bound β2GPI-dependent antiphospholipid antibody-6501 and normal IgG prepared as described above. The incubation of dilute phage with aPL antibody or control IgG was carried out for 2 hours at room temperature on a flat rotator. After 9 washes with TBS/Tween in an automated plate washer, the IgG-bound phage was eluted with 20 μL of 0.2 N HCl-glycine/0.1% BSA, pH 2.2. The elution incubation continued for 10 minutes at RT, during which time a new Corning microtitration plate was prepared containing 20 μL of freshly starved E. coli per well and kept chilled. One hundred forty μL of 29 mM Tris was added to the plate containing the phage eluates in order to neutralize the pH, following which 20 μL of phage suspension was transferred from each well to the corresponding well in the plate containing starved E. coli. After a 10 minute incubation at 37° C., 200 μL 2YT was added and incubation carried out an additional 30 minutes at 37° C. Using multichannel pipettors, 8 μL from each well was spotted on a large 2YT/Tet agar plate while retaining the original 8×12 well pattern and orientation from the last microtitration plate. After allowing the spots to dry for 30 minutes, the plate was incubated overnight at 30° C. The following day, colonies were semiquantitatively scored from 0 to 4+, with 0 symbolizing <10 colonies; 1+=10-30; 2+=30 colonies to 70% confluent; 3+=70%-90% confluent; 4+=confluent.
For Table 7A, the rabbit anti-human β2GPI was performed on two separate occasions. Mutations are listed with the original amino acid, the position number, and the identity of the amino acid at that position in the mutant. […] Non-mutated domain 1 have a score of 3+, while domain 5 phage gave a score of −. Silent mutations are not shown. […]

| Molecule | μpan score |
| --- | --- |
| B1 | 3 |
| B2 | 3 |
| B3 | 2, 2 |
| B4 | 3 |
| B5 | 3 |
| B6 | 2 |

same assay, conditions: Table 7A, second value (second occasion)

| Molecule | μpan score |
| --- | --- |
| B1 | 4 |
| B3 | 2, 2 |

same assay, conditions: Table 7B, 1st column

| Molecule | Micropan score |
| --- | --- |
| B1 | 4 |
| B7 | 4 |
| B8 | 4 |
| B2 | 2 |
| B9 | 4 |
| B4 | 4 |
| B5 | 4 |
| B6 | 4 |

same assay, conditions: Table 7B, 2nd column

| Molecule | Micropan score |
| --- | --- |
| B1 | 4 |
| B7 | 4 |
| B8 | 4 |
| B2 | 4 |
| B9 | 4 |
| B4 | 4 |
| B5 | 4 |
| B6 | 4 |

same assay, conditions: Table 7B, 3rd column

| Molecule | Micropan score |
| --- | --- |
| B1 | 4 |
| B7 | 4 |
| B8 | 4 |
| B2 | 4 |
| B9 | 4 |
| B4 | 4 |
| B5 | 4 |
| B6 | 4 |

same assay, conditions: Table 7B, 4th column

| Molecule | Micropan score |
| --- | --- |
| B1 | 4 |
| B7 | 4 |
| B8 | 4 |
| B2 | 4 |
| B9 | 4 |
| B4 | 4 |
| B5 | 4 |
| B6 | 4 |

same assay, conditions: Table 7B, 5th column

| Molecule | Micropan score |
| --- | --- |
| B10 | 4 |
| B11 | 4 |
| B12 | 4 |
| B13 | 4 |

test system: human β2GPI-dependent antiphospholipid antibody; assay: Micropanning of mutant domain 1 phage, patient antibodies; type: binding; details: Table 7A, antibody 6501

| Molecule | μpan score |
| --- | --- |
| B1 | 3 |
| B2 | 1 |
| B3 | 2 |
| B4 | 3 |
| B5 | 2 |
| B6 | 3 |

same assay, conditions: Table 7A, antibody 6626

| Molecule | μpan score |
| --- | --- |
| B1 | 3 |
| B2 | 1 |
| B3 | 2 |
| B4 | 2 |
| B5 | 1 |
| B6 | 2 |

same assay, conditions: Table 7A, antibody 6701

| Molecule | μpan score |
| --- | --- |
| B1 | 3 |
| B2 | 1 |
| B3 | 2 |
| B4 | 2 |
| B5 | 3 |
| B6 | 3 |

same assay, conditions: Table 7B, antibody 6226

| Molecule | Micropan score |
| --- | --- |
| B1 | 4 |
| B7 | 4 |
| B10 | 0 (0 symbolizing <10 colonies) |
| B8 | 3 |
| B11 | 2 |
| B12 | 1 |
| B2 | 2 |
| B9 | 3 |
| B4 | 4 |
| B5 | 3 |
| B13 | 2 |
| B6 | 4 |

same assay, conditions: Table 7B, antibody 6501

| Molecule | Micropan score |
| --- | --- |
| B1 | 4 |
| B7 | 4 |
| B10 | 0 (0 symbolizing <10 colonies) |
| B8 | 3 |
| B11 | 3 |
| B12 | 1 |
| B2 | 2 |
| B9 | 1 |
| B4 | 4 |
| B5 | 4 |
| B13 | 2 |
| B6 | 4 |

same assay, conditions: Table 7B, antibody 6632

| Molecule | Micropan score |
| --- | --- |
| B1 | 4 |
| B7 | 4 |
| B10 | 0 (0 symbolizing <10 colonies) |
| B8 | 3 |
| B11 | 2 |
| B12 | 1 |
| B2 | 3 |
| B9 | 4 |
| B4 | 4 |
| B5 | 4 |
| B13 | 2 |
| B6 | 3 |

same assay, conditions: Table 7B, antibody 6644

| Molecule | Micropan score |
| --- | --- |
| B1 | 4 |
| B7 | 4 |
| B10 | 1 |
| B8 | 3 |
| B11 | 3 |
| B12 | 1 |
| B2 | 3 |
| B9 | 4 |
| B4 | 4 |
| B5 | 4 |
| B13 | 2 |
| B6 | 4 |

same assay, conditions: Table 7B, antibody 6701

| Molecule | Micropan score |
| --- | --- |
| B1 | 4 |
| B7 | 4 |
| B10 | 0 (0 symbolizing <10 colonies) |
| B8 | 3 |
| B11 | 2 |
| B12 | 1 |
| B2 | 2 |
| B9 | 0 (0 symbolizing <10 colonies) |
| B4 | 2 |
| B5 | 4 |
| B13 | 2 |
| B6 | 4 |

same assay, conditions: Table 7B, antibody 7008

| Molecule | Micropan score |
| --- | --- |
| B1 | 4 |
| B7 | 4 |
| B10 | 2 |
| B8 | 4 |
| B11 | 2 |
| B12 | 1 |
| B2 | 3 |
| B9 | 4 |
| B4 | 4 |
| B5 | 4 |
| B13 | 2 |
| B6 | 4 |
